The data set “SEC” concerns the molecule itself. Description: SEC. (In general: SEC sorts molecules by how far they enter the pores of the column.)
The target in data set [1] is T1, Ebi3 subunit of mouse recombinant IL-35 (rIL-35) (mouse), O35228.
T1 chain: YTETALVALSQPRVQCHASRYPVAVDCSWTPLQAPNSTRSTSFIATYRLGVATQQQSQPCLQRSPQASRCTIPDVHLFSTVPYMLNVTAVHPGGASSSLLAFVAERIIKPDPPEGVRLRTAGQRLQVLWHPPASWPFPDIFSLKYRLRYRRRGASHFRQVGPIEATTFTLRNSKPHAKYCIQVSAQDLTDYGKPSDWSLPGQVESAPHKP
Description: SEC. To be noted: remark: other sources report otherwise.

B1: IL-12p35 subunit of mouse recombinant IL-35 (rIL-35) (natural protein, UniProt P43431 23-215, looked up)
chain: RVIPVSGPARCLSQSRNLLKTTDDMVKTAREKLKHYSCTAEDIDHEDITRDQTSTLKTCLPLELHKNESCLATRETSSTTRGSCLPPQKTSLMMTLCLGSIYEDLKMYQTEFQAINAALQNHNHQQIILDKGMLVAIDELMQSLNHNGETLRQKPPVGEADPYRVKMKLCILLHAFSTRVVTINRVMGYLSSA
A word on the stoichiometry N: it is a count of units in the complex or per binding partner. As for B1, in “SEC”, the “stoichiometry N” value was 2.

B2: Ebi3 subunit of mouse recombinant IL-35 (rIL-35), O35228 19-228 (natural protein)
chain: T1 chain
On to B2, for which the stoichiometry N in data set [1] came to 2.

These data come from publication PMC4581966 (Cytokine & growth factor reviews, 2015).
